Here are results for one substance from patent US20220098287A1.

In assay [1] the target is human α-CGRP K35A (19-37) (human). Kind of assay: SPR (Biacore), 25 °C, Fab over peptide on SA chip; KD of mutant over KD of parent 19-37.
In assay [2] the target is human α-CGRP F37A (25-37) (human). Kind of assay: SPR (Biacore), 25 °C, Fab over peptide on SA chip; KD of mutant over KD of parent 25-37.
Assay [3] addresses human α-CGRP N31A (25-37) (human). The description is as above.
The target in assay [4] is human α-CGRP P29A (25-37) (human). Described as above.
The target in assay [5] is human α-CGRP S34A (25-37) (human). The assay is described as above.
In assay [6] the target is human α-CGRP V32A (25-37) (human). Described as above.
Assay [7] addresses human α-CGRP G33A (25-37) (human). The assay is described as above.
Assay [8] addresses human α-CGRP T30A (25-37) (human). The description is as above.

As for “murine anti-CGRP monoclonal antibody 7E9, Fab fragment”, the KD (mutant/parent) in assay [1] was 4; in assay [2], 3600; in assay [3], 9; in assay [4], 26; in assay [5], 69; in assay [6], 41. Besides, the KD (mutant/parent) in assay [7] was 1260; in assay [8], 7.
